Results as given in US20240109968A1 (NEW YORK UNIVERSITY, published 2024).

Biological target: T1, human galectin-9 CRD2 domain (human, UniProt O00182 227-355, limits assumed)
T1 construct: domain: CRD2; also called human CRD2 domain of galectin-9
Test: ELISA; antibody titrated over immobilized Galectin-9 CRD2, saturation curve

T1 sequence (O00182 227-355 limits assumed): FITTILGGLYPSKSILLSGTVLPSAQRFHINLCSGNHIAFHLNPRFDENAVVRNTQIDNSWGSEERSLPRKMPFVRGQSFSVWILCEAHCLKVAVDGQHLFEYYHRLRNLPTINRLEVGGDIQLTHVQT

Kd: < 1 nM
B1: anti-Galectin-9 antibody G9.2-17 (IgG4) (antibody, V domains shown)
VH: EVQLVESGGGLVQPGGSLRLSCAASGFTVSSSSIHWVRQAPGKGLEWVAYISSSSGYTYYADSVKGRFTISADTSKNTAYLQMNSLRAEDTAVYYCARYWSYPSWWPYRGMDYWGQGTLVTVSS
VL: DIQMTQSPSSLSASVGDRVTITCRASQSVSSAVAWYQQKPGKAPKLLIYSASSLYSGVPSRFSGSRSGTDFTLTISSLQPEDFATYYCQQSSTDPITFGQGTKVEIKR
notes: Human IgG4 with S228P (EU); also called G9.2-17(Ig4); G9.2-17 hIgG4 Fab Arm Exchange mut
